Results from publication doi:10.1101/2024.10.24.620072.
Each block holds one substance with its values, some of them ahead of it.

Assays:
[1] = target: human (H3-H4)2 tetramer (human) (UniProt P68431); test: MST
[2] = target: fluorescently labeled H2a(G129C)-H2b dimer (human) (UniProt P04908); test: MST

Kd [1]: 0.05 µM
Substance: human α-Synuclein, full-length (from UniProt P37840 1-140) (natural protein)

Kd [1]: 0.107 µM
Substance: αSyn(1-103) (from UniProt P37840 1-103) (domain or fragment)

Kd [2]: 32.4 µM
Substance: αSyn(1-131) (from UniProt P37840 1-131) (domain or fragment)

KD of one of two binding sites [2]: 0.5 µM
KD of the other of two binding sites [2]: 2.6 µM
Substance: αSyn(121-140) peptide (from UniProt P37840 121-140)
